Test [1] deals with T1, biotinylated mPD-1-Fc (BPS Bioscience) (mouse; human, UniProt Q02242 25-169, biotinylated (site not stated)).
T1 construct: extracellular domain; Bought from BPS Bioscience; also called mouse PD-1
T1 sequence (looked up): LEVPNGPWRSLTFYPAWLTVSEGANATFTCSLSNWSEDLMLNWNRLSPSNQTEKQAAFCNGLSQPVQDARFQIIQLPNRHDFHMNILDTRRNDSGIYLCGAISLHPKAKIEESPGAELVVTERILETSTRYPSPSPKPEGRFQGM
Nature of the test: competitive ELISA, mouse PD-1/PD-L1. As to the method: (§1) The ability of nanobodies (Nbs) to inhibit the binding of PD-1 with PD-L1 was evaluated by competitive ELISA. For human molecules, plates were coated with 0.5 μg/mL hPD-1-Fc (R&D, Minneapolis, MN) in PBS o/n at 4° C. […] For mouse molecules, a similar protocol was followed. […] The signal of wells incubated without Nbs or antibodies were considered 100% of PD-1/PD-L1 binding.

For test [2], the target named is T2, hPD-1-Fc (human PD-1 ectodomain fused to human IgG1 Fc, R&D) (human, UniProt Q15116 25-170).
T2 construct: extracellular domain; Bought from R&D; not shown: human IgG1 Fc domain
Kind of test: competitive ELISA, human PD-1/PD-L1. Here is the method:
as §1

For test [3], the target named is T3, mPD-L1-Fc (mouse PD-L1 ectodomain fused to human IgG1 Fc, BioLegend) (mouse; human, UniProt Q9EP73 19-239).
T3 construct: extracellular domain; Bought from BioLegend; not shown: human IgG1 Fc domain
Kind of test: competitive ELISA, mouse PD-1/PD-L1. Here is the method:
as §1

For test [4], the target named is T4, biotinylated hPD-L1 fused to human IgG Fc (BPS Bioscience) (human, UniProt Q9NZQ7 19-238, biotinylated (site not stated)).
T4 construct: extracellular domain; Bought from BPS Bioscience; also called human PD-L1
Nature of the test: competitive ELISA, human PD-1/PD-L1. As to the method:
as §1

For test [5], the target named is T4, biotinylated hPD-L1 fused to human IgG …. Kind of test: competitive ELISA, human PD-1/PD-L1; the reference value of envafolimab (5.25 nM) is from the literature.

T2 sequence (Q15116 25-170): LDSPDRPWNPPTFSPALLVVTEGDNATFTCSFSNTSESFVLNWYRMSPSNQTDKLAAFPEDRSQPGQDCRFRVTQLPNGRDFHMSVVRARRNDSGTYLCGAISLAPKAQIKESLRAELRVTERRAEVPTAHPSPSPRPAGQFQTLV
T4 sequence (Q9NZQ7 19-238): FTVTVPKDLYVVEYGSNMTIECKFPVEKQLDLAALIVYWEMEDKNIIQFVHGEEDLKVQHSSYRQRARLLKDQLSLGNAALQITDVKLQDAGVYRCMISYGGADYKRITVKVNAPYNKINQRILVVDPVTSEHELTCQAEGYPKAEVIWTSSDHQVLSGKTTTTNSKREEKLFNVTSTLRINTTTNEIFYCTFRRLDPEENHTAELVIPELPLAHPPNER
T3 sequence (Q9EP73 19-239): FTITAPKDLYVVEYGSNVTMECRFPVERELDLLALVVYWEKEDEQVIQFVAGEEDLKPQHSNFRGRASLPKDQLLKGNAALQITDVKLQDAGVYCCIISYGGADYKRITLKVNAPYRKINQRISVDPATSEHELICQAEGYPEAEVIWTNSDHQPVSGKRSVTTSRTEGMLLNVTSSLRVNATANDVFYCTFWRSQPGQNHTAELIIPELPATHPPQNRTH

B1: Nb11-Fc (Nb11 fused to mouse IgG1 Fc domain including hinge) (Fc fusion)
chain: AQVQLVQSGGGSVQAGDSLRLSCAVSGHPDSSYSMAWFRQAPGKERELVALISWSGAITHYSDSVKDRFTISRDNAKNEMYLQMDSLKPEDTAVYFCQADDPTSELNQYWGQGTQVTVSSGCKPCICTVPEVSSVFIFPPKPKDVLTITLTPKVTCVVVDISKDDPEVQFSWFVDDVEVHTAQTQPREEQFNSTFRSVSELPIMHQDWLNGKEFKCRVNSAAFPAPIEKTISKTKGRPKAPQVYTIPPPKEQMAKDKVSLTCMITDFFPEDITVEWQWNGQPAENYKNTQPIMDTDGSYFVYSKLNVQKSNWEAGNTFTCSVLHEGLHNHHTEKSLSHSPGK
notes: Fc homodimer, concentrated from supernatants of BHK-21 cells electroporated with SFV-Nb11-Fc RNA; also called dimeric Nb11
On to B1, for which, in test [1], the “fold IC50 reduction against clone RMPI-14” value came to 700 fold and the “fold IC50 reduction against monomeric Nb11” value was around 40 fold. Moreover, in test [2], the “fold IC50 reduction against monomeric Nb11” value is around 40 fold, the “fold IC50 reduction against nivolumab” value stood at 10 fold and the “fold lower IC50 than nivolumab” value stood at 8.6 fold.

B2: Nb6p-Fc (Nb6p fused to mouse IgG2a Fc domain including hinge) (Fc fusion)
chain: AEVQLVESGGGLVQAGGSLRLSCAAAGRSFNSNAMGWVRQAPGKEREIVAVISATGSYTYYEDSVKGRFTISRDNSKNTVSLQMSSLSSEDTAVYYCAGSRTAALTTIMTLFNYWGQGTQVTVSSPGPRGPTIKPCPPCKCPAPNLLGGPSVFIFPPKIKDVLMISLSPIVTCVVVDVSEDDPDVQISWFVNNVEVHTAQTQTHREDYNSTLRVVSALPIQHQDWMSGKEFKCKVNNKDLPAPIERTISKPKGSVRAPQVYVLPPPEEEMTKKQVTLTCMVTDFMPEDIYVEWTNNGKTELNYKNTEPVLDSDGSYFMYSKLRVEKKNWVERNSYSCSVVHEGLHNHHTTKSFSRTPGK
notes: Fc homodimer, purified on protein A from supernatants of BHK-21 cells electroporated with SFV-Nb6p-Fc RNA; also called dimeric Nb6p
As to B2, in test [3], the “fold IC50 reduction against monomeric Nb6p” value is around 7 fold and the “fold IC50 reduction of the Fc homodimer against monomeric Nb6p” value is around 8 fold. In test [4], the “fold IC50 reduction against monomeric Nb6p” value was around 7 fold and the “fold IC50 reduction of the Fc homodimer against monomeric Nb6p” value was around 8 fold. For the same molecule, the “fold by which the literature IC50 of envafolimab is higher than that of Nb6p-Fc” value in test [5] is around 10 fold.
